{"source": "IntAct's records for PubMed 17540176", "parents": {"B1": {"name": "Serine/threonine-protein phosphatase 2A 65 kDa regulatory subunit A beta isoform (Homo sapiens), P30154 (parent)", "chain": "MAGASELGTGPGAAGGDGDDSLYPIAVLIDELRNEDVQLRLNSIKKLSTIALALGVERTRSELLPFLTDTIYDEDEVLLALAEQLGNFTGLVGGPDFAHCLLPPLENLATVEETVVRDKAVESLRQISQEHTPVALEAYFVPLVKRLASGDWFTSRTSACGLFSVCYPRASNAVKAEIRQQFRSLCSDDTPMVRRAAASKLGEFAKVLELDSVKSEIVPLFTSLASDEQDSVRLLAVEACVSIAQLLSQDDLETLVMPTLRQAAEDKSWRVRYMVADRFSELQKAMGPKITLNDLIPAFQNLLKDCEAEVRAAAAHKVKELGENLPIEDRETIIMNQILPYIKELVSDTNQHVKSALASVIMGLSTILGKENTIEHLLPLFLAQLKDECPDVRLNIISNLDCVNEVIGIRQLSQSLLPAIVELAEDAKWRVRLAIIEYMPLLAGQLGVEFFDEKLNSLCMAWLVDHVYAIREAATNNLMKLVQKFGTEWAQNTIVPKVLVMANDPNYLHRMTTLFCINALSEACGQEITTKQMLPIVLKMAGDQVANVRFNVAKSLQKIGPILDTNALQGEVKPVLQKLGQDEDMDVKYFAQEAISVLALA", "partner": "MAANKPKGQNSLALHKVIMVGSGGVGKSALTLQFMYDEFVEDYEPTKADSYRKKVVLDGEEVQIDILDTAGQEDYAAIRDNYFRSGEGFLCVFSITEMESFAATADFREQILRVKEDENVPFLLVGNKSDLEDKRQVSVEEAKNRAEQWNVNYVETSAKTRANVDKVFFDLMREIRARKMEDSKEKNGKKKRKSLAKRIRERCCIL"}, "B2": {"name": "Ras-related protein Ral-A (Homo sapiens), P11233 (parent)", "chain": "B1 partner"}, "B3": {"name": "Serine/threonine-protein phosphatase 2A 65 kDa regulatory subunit A beta isoform (Homo sapiens), P30154 (parent)", "chain": "B1 chain", "partner": "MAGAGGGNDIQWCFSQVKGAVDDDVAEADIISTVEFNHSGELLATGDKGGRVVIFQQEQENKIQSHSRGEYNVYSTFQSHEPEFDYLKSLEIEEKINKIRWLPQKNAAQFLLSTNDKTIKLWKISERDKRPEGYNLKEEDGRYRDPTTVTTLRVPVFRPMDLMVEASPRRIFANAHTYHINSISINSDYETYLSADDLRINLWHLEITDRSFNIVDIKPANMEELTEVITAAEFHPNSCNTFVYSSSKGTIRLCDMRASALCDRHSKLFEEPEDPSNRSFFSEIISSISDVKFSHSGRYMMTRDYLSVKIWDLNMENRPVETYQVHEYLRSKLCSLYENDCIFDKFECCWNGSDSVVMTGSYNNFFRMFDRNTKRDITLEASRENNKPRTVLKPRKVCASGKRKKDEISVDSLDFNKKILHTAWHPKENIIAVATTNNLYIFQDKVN"}, "B4": {"name": "Serine/threonine-protein phosphatase 2A 65 kDa regulatory subunit A beta isoform (Homo sapiens), P30154 (parent)", "chain": "B1 chain"}}, "data": [{"variants_of": "B1", "conditions": "with rala_human RALA", "values": [{"variant": "V545A", "effect of a mutation on the interaction": "decreasing interaction"}, {"variant": "V448A", "effect of a mutation on the interaction": "decreasing interaction"}, {"variant": "G8R", "effect of a mutation on the interaction": "decreasing interaction"}]}, {"variants_of": "B2", "conditions": "with 2aab_human PPP2R1B", "values": [{"variant": "S194A", "effect of a mutation on the interaction": "decreasing interaction"}, {"variant": "S183A", "effect of a mutation on the interaction": "decreasing interaction"}]}, {"variants_of": "B3", "conditions": "with 2aba_human PPP2R2A", "values": [{"variant": "L101P;V448A", "effect of a mutation on the interaction": "decreasing interaction"}]}, {"variants_of": "B4", "conditions": "with 2a5g_human PPP2R5C", "values": [{"variant": "V545A", "effect of a mutation on the interaction": "decreasing interaction"}, {"variant": "D504G", "effect of a mutation on the interaction": "decreasing interaction"}, {"variant": "L101P", "effect of a mutation on the interaction": "decreasing interaction"}, {"variant": "V448A", "effect of a mutation on the interaction": "decreasing interaction"}, {"variant": "L101P;V448A", "effect of a mutation on the interaction": "decreasing interaction"}, {"variant": "K343E", "effect of a mutation on the interaction": "decreasing interaction"}]}, {"variants_of": "B4", "conditions": "with 2a5d_human PPP2R5D", "values": [{"variant": "V545A", "effect of a mutation on the interaction": "decreasing interaction"}, {"variant": "L101P", "effect of a mutation on the interaction": "decreasing interaction"}, {"variant": "V448A", "effect of a mutation on the interaction": "decreasing interaction"}, {"variant": "L101P;V448A", "effect of a mutation on the interaction": "decreasing interaction"}]}, {"variants_of": "B4", "conditions": "with pp2aa_human PPP2CA", "values": [{"variant": "L101P", "effect of a mutation on the interaction": "decreasing interaction"}, {"variant": "V448A", "effect of a mutation on the interaction": "decreasing interaction"}, {"variant": "L101P;V448A", "effect of a mutation on the interaction": "decreasing interaction"}]}, {"variants_of": "B4", "conditions": "with 2a5a_human PPP2R5A", "values": [{"variant": "L101P", "effect of a mutation on the interaction": "decreasing interaction"}, {"variant": "V448A", "effect of a mutation on the interaction": "decreasing interaction"}, {"variant": "L101P;V448A", "effect of a mutation on the interaction": "decreasing interaction"}]}]}
